Source: US20200270345A1 (JOINT STOCK COMPANY BIOCAD, published 2020)

Experiments:
human CD47-Fc [1] = target: T1, human CD47-Fc (human, UniProt Q08722 19-134); test: competitive ELISA without VHH: uninhibited SIRP-Fc / CD47-Fc signal
T1 construct: Leu19-Val134 is the natural numbering printed; also called human CD47-Fc receptor; human CD47-Fc (Biocad); not shown: Fc tag of the expression plasmid

CD47 proprietary = CD47 proprietary (human, UniProt Q08722 19-134, limits assumed); test: ELISA on CD47 proprietary, 450 nm
human CD47-Fc [2] = target: T1, human CD47-Fc; test: competitive ELISA, competitor SIRP-Fc; lower OD means more blocking
human CD47-Fc [3] = target: T1, human CD47-Fc; test: ELISA, CD47-Fc coated, VHH in E. coli supernatant, anti-myc detection, 450 nm
Experimental: ELISA was used to measure the binding of specific test antibody fragments of Example 4 to human CD47-Fc. ELISA well plates (Nunc ImmunoMaxisorp) were covered with 50 μl/well of human CD47-Fc (Biocad) (0.5 μg/ml in 1× coating carbonate buffer), sealed, and incubated overnight at 4° C. All further stages were performed in accordance with standard ELISA protocols with a high-performance automated platform based on robotic systems such as GenetixQ-pix2xt (Molecular Devices) and Tecan Freedom EVO 200 (Tecan). Non-specific binding was blocked by adding a blocking buffer BB (200 μl 0.5% fat-free milk in PBS). Plates were incubated on a shaker for 1 h at room temperature. After washing with PBS-Tween, each cell was coated with 100 μl of cell supernatant containing the test antibody fragment. The plates were incubated on a shaker for 1 hour at room temperature; further, each plate well was 5 times washed with PBS-Tween buffer. After washing, mouse anti-MYC IgG clone 9E10 (ThermoFisher Scientific) (50 μl/well) was added to PBS-Tween (1:5000). The plates were shaken in rotation shaker (50 min at room temperature) and then 5 times washed with PBS-Tween buffer as described above. After washing, anti-mouse IgG HRP conjugate (ThermoFisher Scientific) (50 μl/well) was added to PBS-Tween (1:10000). The plates were shaken in rotation shaker (50 min at room temperature) and then 5 times washed with PBS-Tween buffer as described above. Colorimetric signal was obtained by adding TMB (50 μl/well) until saturated (average of 10-12 min); further color development was blocked by adding a stop solution (25 μl/well, 1% sulfuric acid). Color signal was measured at 450 nm using a suitable Tecan-Sunrise plate reader (Tecan). Antibody binding was proportional to the signal produced.

human CD47-Fc [4] = target: T1, human CD47-Fc; test: BLI (Octet Red 96), CD47-Fc on ARG2 sensor, VHH in growth medium, 1:1 model
Experimental: VHH antibody fragments were measured to provide an example of analysis of kinetic parameters of interaction of antibody fragments that specifically bind to CD47 receptor. Dissociation constant (kdis)-based comparative screening for VHH fragments was performed using Octet Red 96 and ARG2 amino-reactive biosensors (Pall-ForteBio). Affinity constants can be calculated based on the exact protein concentration in the test solution, and, since cell growth media were used as a protein solution and protein concentrations were not measured, the candidates were compared to each other by using the dissociation constant thereof. Biosensors were pre-rehydrated for an hour in water. After activating biosensors, CD47-Fc at a concentration of 10 μg/ml in acetate buffer pH4 was non-specifically (by NH2 groups) immobilized onto the biosensor. The sensors were then immersed into wells containing cell growth medium with specific VHHs (from about 1 μg of VHH in 1 ml of medium), where the complex was associated. The sensors were then immersed in a buffer solution, where the subsequent stage of dissociation of the complex took place. 1/10 of the volume of 10× working buffer was added to the test specimens in E. Coli growth medium containing anti-CD47 VHH fragments. The obtained curves were analyzed using OctetDataAnalysis (version 7.0) according to the standard procedure with 1:1 interaction model.

Sequence of CD47 proprietary (Q08722 19-134 limits assumed): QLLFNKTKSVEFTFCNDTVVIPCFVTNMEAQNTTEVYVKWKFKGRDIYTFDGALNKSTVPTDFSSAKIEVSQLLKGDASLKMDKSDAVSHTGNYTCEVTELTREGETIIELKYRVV
T1 sequence (Q08722 19-134): as the sequence (Q08722 19-134 limits assumed) above
Sequence of SIRP-Fc ligand (BIOCAD) (P78324 31-370 limits assumed): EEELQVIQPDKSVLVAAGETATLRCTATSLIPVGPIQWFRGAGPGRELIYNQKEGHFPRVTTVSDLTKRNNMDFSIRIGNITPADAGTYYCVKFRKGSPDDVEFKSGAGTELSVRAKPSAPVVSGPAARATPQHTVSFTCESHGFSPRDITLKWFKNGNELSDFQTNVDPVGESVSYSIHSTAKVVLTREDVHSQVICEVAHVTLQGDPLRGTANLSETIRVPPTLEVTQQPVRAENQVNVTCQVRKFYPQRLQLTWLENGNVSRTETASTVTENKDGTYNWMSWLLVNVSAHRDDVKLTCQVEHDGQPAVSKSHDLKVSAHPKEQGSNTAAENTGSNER

Molecule	OD units, competitive screening to SIRP-Fc (human CD47-Fc [1])	OD units, binding on CD47 proprietary (CD47 proprietary)	OD units, competitive screening to SIRP-Fc (human CD47-Fc [2])	OD units, initial screening for CD47-Fc (human CD47-Fc [3])	koff (human CD47-Fc [4])
SIRP-Fc ligand (BIOCAD) (from UniProt P78324 31-370) (Fc fusion)	0.481 OD units	–	–	–	–
BCD106-02_L.Alecto.VHHSel2_MP1_G5_37 (VHH, Llama anti-CD47 VHH tested as E. coli culture supernatant; not shown: myc and His6 tags at the C-terminus of the VHH (pET-22)) VHH: AVQLVDSGGGLVQPGGSLRLSCAASRSIFSINAMNWYRQAPGNRREWVAQITDEGITNYVDSVKGRFTITRDNAKNTMYLQMNSLKPEDTAVYYCNAFVITTTSEIYWGQGTTVTVSS	–	0.426 OD units	0.143 OD units	0.166 OD units	0.006 s⁻¹
BCD106-02_L.Alecto.VHHSel2_MP1_F10_76 (VHH, Llama anti-CD47 VHH tested as E. coli culture supernatant; not shown: myc and His6 tags at the C-terminus of the VHH (pET-22)) VHH: DVQLVESGGGLVQPGGSLRLSCAASRNIFSINAMNWYRQAPGKRREWVAQITSEGITNYVDSVKGRFTITRDNAKNTMYLQMNSLKPEDTAVYYCNAFVITASSEVYWGQGTTVTVSS	–	0.312 OD units	0.114 OD units	0.213 OD units	0.01 s⁻¹
BCD106-02_L.Alecto.VHHSel2_MP1_C7_49 (VHH, Llama anti-CD47 VHH tested as E. coli culture supernatant; not shown: myc and His6 tags at the C-terminus of the VHH (pET-22)) VHH: AVQLVDSGGGLVQPGGSLRLSCAASRSIFSINAMNWYRQPPGNRREWVAQITDEGITNYVDSVKGRFTITRDNAKNTMYLQMNSLKPEDTAVYYCNAFVITTTSEIYWGQGTTVTVSS	–	0.379 OD units	0.14 OD units	0.127 OD units	0.005 s⁻¹
BCD106-02_L.Alecto.VHHSel2_MP1_H10_78 (VHH, Llama anti-CD47 VHH tested as E. coli culture supernatant; not shown: myc and His6 tags at the C-terminus of the VHH (pET-22)) VHH: QVKLEESGGGLVQPGGSLRLSCAASRSISSINAMNWYRQAPGKRREWVAQITGEGITNYRDSVKGRFTITSDNAKNTMYLQMNSLKPEDTAVYYCNAFVIHTTSEVYWGQGTLVTVSS	–	0.448 OD units	0.095 OD units	0.4 OD units	0.006 s⁻¹
BCD106-02_L.Alecto.VHHSel2_MP1_G7_53 (VHH, Llama anti-CD47 VHH tested as E. coli culture supernatant; not shown: myc and His6 tags at the C-terminus of the VHH (pET-22)) VHH: QVKLEESGGGLVQPGGSLTLSCAASGIISSINAMNWYRQAPGKRREWVAQITGEGITNCRDSWKGRFSITSDSANNTMYLQMNNLKPDDTDVYYCNAFVIHTTSEIYWGLGTTVTVSS	–	0.498 OD units	0.088 OD units	0.319 OD units	0.008 s⁻¹
BCD106-02_L.Alecto.VHHSel2_MP1_B9_64 (VHH, Llama anti-CD47 VHH tested as E. coli culture supernatant; not shown: myc and His6 tags at the C-terminus of the VHH (pET-22)) VHH: DVQLVESGGGLVQPGGSLTLSCAASRNIFRINAMNWYRQAPGKRREWVAPITSEGITNYVDSVKGRFTITRDNAKNTMYLQMNSLKPEDTAVYYCNACLITASSEVYWGQGTLVTVSS	–	0.24 OD units	0.188 OD units	0.129 OD units	0.008 s⁻¹
